B1: human Bub1, endogenous (enzyme)
chain: MDTPENVLQMLEAHMQSYKGNDPLGEWERYIQWVEENFPENKEYLITLLEHLMKEFLDKKKYHNDPRFISYCLKFAEYNSDLHQFFEFLYNHGIGTLSSPLYIAWAGHLEAQGELQHASAVLQRGIQNQAEPREFLQQQYRLFQTRLTETHLPAQARTSEPLHNVQVLNQMITSKSNPGNNMACISKNQGSELSGVISSACDKESNMERRVITISKSEYSVHSSLASKVDVEQVVMYCKEKLIRGESEFSFEELRAQKYNQRRKHEQWVNEDRHYMKRKEANAFEEQLLKQKMDELHKKLHQVVETSHEDLPASQERSEVNPARMGPSVGSQQELRAPCLPVTYQQTPVNMEKNPREAPPVVPPLANAISAALVSPATSQSIAPPVPLKAQTVTDSMFAVASKDAGCVNKSTHEFKPQSGAEIKEGCETHKVANTSSFHTTPNTSLGMVQATPSKVQPSPTVHTKEALGFIMNMFQAPTLPDISDDKDEWQSLDQNEDAFEAQFQKNVRSSGAWGVNKIISSLSSAFHVFEDGNKENYGLPQPKNKPTGARTFGERSVSRLPSKPKEEVPHAEEFLDDSTVWGIRCNKTLAPSPKSPGDFTSAAQLASTPFHKLPVESVHILEDKENVVAKQCTQATLDSCEENMVVPSRDGKFSPIQEKSPKQALSSHMYSASLLRLSQPAAGGVLTCEAELGVEACRLTDTDAAIAEDPPDAIAGLQAEWMQMSSLGTVDAPNFIVGNPWDDKLIFKLLSGLSKPVSSYPNTFEWQCKLPAIKPKTEFQLGSKLVYVHHLLGEGAFAQVYEATQGDLNDAKNKQKFVLKVQKPANPWEFYIGTQLMERLKPSMQHMFMKFYSAHLFQNGSVLVGELYSYGTLLNAINLYKNTPEKVMPQGLVISFAMRMLYMIEQVHDCEIIHGDIKPDNFILGNGFLEQDDEDDLSAGLALIDLGQSIDMKLFPKGTIFTAKCETSGFQCVEMLSNKPWNYQIDYFGVAATVYCMLFGTYMKVKNEGGECKPEGLFRRLPHLDMWNEFFHVMLNIPDCHHLPSLDLLRQKLKKVFQQHYTNKIRALRNRLIVLLLECKRSRK
notes: mature; also called hBub1; Bub1 (U2OS cells)
B2: mouse Bub1, endogenous (enzyme)
chain: MDNLENVFRMFEAHMQSYTGNDPLGEWESFIKWVEENFPDNKEYLMTLLEHLMKEFLHKKNYHNDSRFINYCLKFAEYNSDRHQFFEFLYNQGIGTKSSYIYMSWAGHLEAQGELQHASAIFQTGIHNEAEPKELLQQQYRLFQARLTGIHLPAQATTSEPLHSAQILNQVMMTNSSPEKNSACVPKSQGSECSGVASSTCDEKSNMEQRVIMISKSECSVSSSVAPKPEAQQVMYCKEKLIRGDSEFSFEELRAQKYNQRKKHEQWVSEDRNYMKRKEANAFEEQLLKQKMDELHKKLHQVVELSHKDLPASENRPDVSLVCVGQNTCSQQELRGPSLSSISHQTSESSGEKPQEEPSVPLMVNAVNSTLLFPAANLPALPVPVSGQSLTDSRCVNQSVHEFMPQCGPETKEVCETNKVASINDFHTTPNTSLGMVQGTPCKVQPSPTVHTKEALGFIMDMFQAPTLPDISDDKDEWPSLDQNEDAFEAQFQKNAVSSGDWGVKKIMTLSSAFPIFEDGNKENYGLPQPKNKPLGARTFGERSLSKYSSRSNEMPHTDEFMDDSTVCGIRCNKTLAPSPKSIGDFTSAAQLSSTPFHKFPADLVQIPEDKENVVATQYTHMALDSCKENIVDLSKGRKLGPIQEKISASLPCPSQPATGGLFTQEAVFGLEAFKCTGIDHATVEDLSDANAGLQVECVQTLGNVNAPSFTVENPWDDELILKLLSGLSKPVTSYSNTFEWQSKLPAIKTKTEYQLGSLLVYVNHLLGEGAFAQVFEAIHGDVRNAKSEQKCILKVQRPANSWEFYIGMQLMERLKPEVHHMFIKFYSAHLFKNGSILVGELYSYGTLLNVINLYKNTSEKVMPQALVLTFAIRMLYMVEQVHSCEIIHGDIKPDNFILGHRFLEQADEDLATGLALIDLGQSIDMKLFPKGTVFTGKCETSGFQCPEMLSNKPWNYQIDYFGVAATIYCMLFGSYMKVKNEGGVWKPEGLFRRLPHLDMWEEFFHIMLNIPDCHNLPSLDFLRQNMKKLLEQQYSNKIKTLRNRLIVMLSEYKRSRK
notes: mature; also called mBub1; Bub1 (NIH3T3 cells)
B3: T antigen deletion mutant dl89-97 (other)
chain: MDKVLNREESLQLMDLLGLERSAWGNIPLMRKAYLKKCKEFHPDKGGDEEKMKKMNTLYKKMEDGVKYAHQPDFGGFWDATEIPTYGTFNEENLFCSEEMPSSDDEATADSQHSTPPKKKRKVEDPKDFPSELLSFLSHAVFSNRTLACFAIYTTKEKAALLYKKIMEKYSVTFISRHNSYNHNILFFLTPHRHRVSAINNYAQKLCTFSFLICKGVNKEYLMYSALTRDPFSVIEESLPGGLKEHDFNPEEAEETKQVSWKLVTEYAMETKCDDVLLLLGMYLEFQYSFEMCLKCIKKEQPSHYKYHEKYYANAAIFADSKNQKTICQQAVDTVLAKKRVDSLQLTREQMLTNRFNDLLDRMDIMFGSTGSADIEEWMAGVAWLHCLLPKMDSVVYDFLKCMVYNIPKKRYWLFKGPIDSGKTTLAAALLELCGGKALNVNLPLDRLNFELGVAIDQFLVVFEDVKGTGGESRDLPSGQGINNLDNLRDYLDGSVKVNLEKKHLNKRTQIFPPGIVTMNEYSVPKTLQARFVKQIDFRPKDYLKHCLERSEFLLEKRIIQSGIALLLMLIWYRPVAEFAQSIQSRIVEWKERLDKEFSLSVYQKMKFNVAMGIGVLDWLRNSDDDDEDSQENADKNEDGGEKNMEDSGHETGIDSQSQGSFQAPQSSQSVHDHNQPYHICRGFTCFKKPPTPPPEPET

What was measured:
[1] = biological target: T1, T antigen mutant D44N (SV40, UniProt P03070 1-708); assay: co-immunoprecipitation from U2OS stable lines
T1 construct: Defective DnaJ domain

[2] = biological target: T2, SV40 large T antigen, wild-type (SV40, UniProt P03070 1-708); assay: co-immunoprecipitation from U2OS/T cell lysates
T2 construct: also called wild-type T antigen; T Ag

[3] = biological target: T2, SV40 large T antigen, wild-type; assay: co-immunoprecipitation from NIH3T3/T cell lysates
[4] = biological target: B1; assay: co-immunoprecipitation from U2OS stable lines

## B1
[1]
  binding result: binds
[2]
  binding result: binds

## B2
[3]
  binding result: binds

## B3
[4]
  binding result: no binding

— patent US20070274969A1 (published 2007)
